Experimental data from PMC2555995 (The Journal of Biological Chemistry, 2008).
Numbering of substitutions follows the chain as printed. Numbers in names are those of the source. Values belong to the binder of their own block, whether it stands above or below them.

Key:
[1] = target: His6-S-Tag-Mlp1-NBD (residues 1586–1768) (S. cerevisiae, UniProt Q02455 1586-1768); assay: ELISA
His6-Nab2 = target: T1, His6-Nab2 (S. cerevisiae, UniProt P32505 1-525); assay: pull-down
T1 sequence (looked up): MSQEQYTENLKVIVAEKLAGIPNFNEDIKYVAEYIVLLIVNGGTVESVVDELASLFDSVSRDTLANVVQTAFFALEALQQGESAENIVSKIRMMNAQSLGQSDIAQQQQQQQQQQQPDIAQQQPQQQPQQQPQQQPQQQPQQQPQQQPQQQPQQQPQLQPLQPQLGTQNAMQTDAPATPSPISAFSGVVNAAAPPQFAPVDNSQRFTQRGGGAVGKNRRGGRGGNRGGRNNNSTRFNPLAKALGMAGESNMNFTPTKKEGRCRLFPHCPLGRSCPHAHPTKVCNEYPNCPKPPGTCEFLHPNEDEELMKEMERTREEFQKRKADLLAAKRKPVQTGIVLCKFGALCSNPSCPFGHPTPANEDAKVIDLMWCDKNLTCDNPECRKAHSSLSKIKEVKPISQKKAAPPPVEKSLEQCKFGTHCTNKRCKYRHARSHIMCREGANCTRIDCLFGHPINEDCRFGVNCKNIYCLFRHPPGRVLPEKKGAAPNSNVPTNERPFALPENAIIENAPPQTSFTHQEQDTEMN

B3: GST-Nab2-N-F72D (residues 1–97) (domain or fragment, S. cerevisiae, UniProt P32505 1-97, looked up)
chain: MSQEQYTENLKVIVAEKLAGIPNFNEDIKYVAEYIVLLIVNGGTVESVVDELASLFDSVSRDTLANVVQTADFALEALQQGESAENIVSKIRMMNAQ
Kd [1]: 2310 nM

B4: GST-CT-Mlp1 (residues 1490–1875) (domain or fragment, S. cerevisiae, UniProt Q02455 1490-1875, looked up)
chain: AQERLNQPSNINMEEIKKKWESEHEQEVSQKIREAEEALKKRIRLPTEEKINKIIERKKEELEKEFEEKVEERIKSMEQSGEIDVVLRKQLEAKVQEKQKELENEYNKKLQEELKDVPHSSHISDDERDKLRAEIESRLREEFNNELQAIKKKSFDEGKQQAMMKTTLLERKLAKMESQLSETKQSAESPPKSVNNVQNPLLGLPRKIEENSNSPFNPLLSGEKLLKLNSKSSSGGFNPFTSPSPNKHLQNDNDKRESLANKTDPPTHLEPSFNIPASRGLISSSSTLSTDTNDEELTSNNPAQKDSSNRNVQSEEDTEKKKEGEPVKRGEAIEEQTKSNKRPIDEVGELKNDEDDTTENINESKKIKTEDEEEKETDKVNDENSI
binding result (His6-Nab2): binds

Next, values leading:

Kd [1]: 1260 nM
B1: GST-Nab2-N-WT (residues 1–97) (domain or fragment, S. cerevisiae, UniProt P32505 1-97, looked up)
chain: B3 chain with D72F

Kd [1]: 830 nM
B2: GST-Nab2-N-F73W (residues 1–97) (domain or fragment, S. cerevisiae, UniProt P32505 1-97, looked up)
chain: B3 chain with D72F, F73W
